{"source": "paper PMC11621127", "key": {"[1]": {"target": "JRCSF SOSIP (chimeric SOSIP Env trimer: gp120 from JRCSF.JB, gp41 from BG505 with MD39 substitutions) (HIV-1 strain JRCSF.JB | HIV-1 strain BG505)", "test": "mass photometry; Fab-SOSIP complexes formed at room temperature in TBS overnight, 4 uM trimer, 1.05 molar excess of Fab to SOSIP protomer, not purified by SEC; diluted to 8 nM trimer and a further 10-fold (6535.3) or 4-fold (JRCSF) on the instrument; SOSIP alone as control"}, "[2]": {"target": "6535.3 SOSIP (chimeric SOSIP Env trimer: gp120 from 6535.3, gp41 from BG505 with MD39 substitutions) (HIV-1 strain 6535.3 | HIV-1 strain BG505)", "test": "mass photometry; Fab-SOSIP complexes formed at room temperature in TBS overnight, 4 uM trimer, 1.05 molar excess of Fab to SOSIP protomer, not purified by SEC; diluted to 8 nM trimer and a further 10-fold (6535.3) or 4-fold (JRCSF) on the instrument; SOSIP alone as control"}, "[3]": {"target": "JRCSF SOSIP (chimeric SOSIP Env trimer: gp120 from JRCSF.JB, gp41 from BG505 with MD39 substitutions) (HIV-1 strain JRCSF.JB | HIV-1 strain BG505)", "test": "cryo-EM structure; SOSIP complexed with Fab at room temperature overnight, about 1.3:1 molar excess Fab:SOSIP protomer; SEC (Superose 6 Increase) in TBS; ~1.1 mg/mL (JRCSF/Ab1456) or ~1.9 mg/mL (6535.3/Ab1271); no sCD4 or CD4 mimetic"}, "[4]": {"target": "JRCSF SOSIP (chimeric SOSIP Env trimer: gp120 from JRCSF.JB, gp41 from BG505 with MD39 substitutions) (HIV-1 strain JRCSF.JB | HIV-1 strain BG505)", "test": "cryo-EM structure; SOSIP complexed with Fab at room temperature overnight, about 1.3:1 molar excess Fab:SOSIP protomer; SEC (Superose 6 Increase) in TBS; ~1.1 mg/mL (JRCSF/Ab1456) or ~1.9 mg/mL (6535.3/Ab1271); no sCD4 or CD4 mimetic", "remark": "listed apart in the source"}, "[5]": {"target": "JRCSF SOSIP (chimeric SOSIP Env trimer: gp120 from JRCSF.JB, gp41 from BG505 with MD39 substitutions) (HIV-1 strain JRCSF.JB | HIV-1 strain BG505)", "test": "cryo-EM structure; SOSIP complexed with Fab at room temperature overnight, about 1.3:1 molar excess Fab:SOSIP protomer; SEC (Superose 6 Increase) in TBS; ~1.1 mg/mL (JRCSF/Ab1456) or ~1.9 mg/mL (6535.3/Ab1271); no sCD4 or CD4 mimetic", "remark": "listed apart in the source"}, "[6]": {"target": "6535.3 SOSIP (chimeric SOSIP Env trimer: gp120 from 6535.3, gp41 from BG505 with MD39 substitutions) (HIV-1 strain 6535.3 | HIV-1 strain BG505)", "test": "cryo-EM structure; SOSIP complexed with Fab at room temperature overnight, about 1.3:1 molar excess Fab:SOSIP protomer; SEC (Superose 6 Increase) in TBS; ~1.1 mg/mL (JRCSF/Ab1456) or ~1.9 mg/mL (6535.3/Ab1271); no sCD4 or CD4 mimetic"}}, "note": "Read-outs that look alike come from different tables or passages of the source.", "data": [{"molecule": "JRCSF SOSIP (chimeric SOSIP Env trimer: gp120 from JRCSF.JB, gp41 from BG505 with MD39 substitutions) (complex)", "values": [{"measurement": "stoichiometry N", "setting": "[1]", "value": 3}]}, {"molecule": "6535.3 SOSIP (chimeric SOSIP Env trimer: gp120 from 6535.3, gp41 from BG505 with MD39 substitutions) (complex)", "values": [{"measurement": "stoichiometry N", "setting": "[2]", "value": 3}]}, {"molecule": "Ab1456 Fab (Fab, V domains shown) VH: QVQLVESGAEVKRPGDSLKISCKTSGDVFTSTWITWVRQMPGKDLEWMASIYLDDSDTQYNPSFQGHVTISADKSINTIYLQLSSLKVSDTATYYCAKWGVDCSDSGCSSAFDSWGQGVLVTVSS VL: SYELTQPPSVSGAPGQRVTISCTGGTSNIGNYYVQWYQQLPGTAPKLLIYENNKRPSGISDRFSGSQSGTSGSLTITTGLQSEDEADYFCQSYDDSLSAHVFGSGTKVTIL", "values": [{"measurement": "stoichiometry N (Fab per trimer)", "setting": "[3]", "value": 1}, {"measurement": "stoichiometry N (Fab per trimer)", "setting": "[4]", "value": 3}, {"measurement": "stoichiometry N (Fab per trimer)", "setting": "[5]", "value": 2}]}, {"molecule": "Ab1271 Fab (Fab, V domains shown) VH: QVQLVESGPGLVKPSETLSLTCAVSGDSISSTWWNWIRQPPGKGLEWIGRISGDGGNTDYSPSLKSRVTISTDTSKNQLSLRLTSVAAADTAVYFCAAPDCSGPDCSPGFDYWGPGVLVTVSS VL: QPVLTQPPSVSGAPGQRVTISCTGSSSDIGRFYVQWYQQLPGTAPKLLIYENTKRPSGISDRFSGSQSGPSASLTITGLQSEDEADYYCQSYDSSMSAHVLFGGGTRLTVL", "values": [{"measurement": "stoichiometry N (Fab per trimer)", "setting": "[6]", "value": 1}, {"measurement": "stoichiometry N (Fab per trimer)", "setting": "[2]", "value": 1}]}]}
